The record followed here is the nanobody polyreactivity screen of Harvey et al. (2022).

This data set can be described thus: yeast display, Sf9 membrane polyspecificity reagent, FACS + sequencing; frameworks hold sequencing errors. In short, it runs like this: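 After 36–48 hours of galactose induction, yeast (Saccharomyces cerevisiae BJ5465) displaying a synthetic nanobody library were stained at 4 °C for 1 hour with 10% biotinylated, detergent-solubilized Sf9 membrane reagent. Streptavidin microbeads enriched the stained cells before FACS sorting into low and high (top ~1%) gates on anti-HA and streptavidin fluorescence. Each clone's polyreactivity label reflects its gate of origin.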
Take “QVQLEESRGGVVQAGGSLRLSCAASGSIITVYALGWERQAPGQERELVAGISRGGGTYYADSVTGRFTISRDNAKNCVYLQMNSLKPEDTAVYYCAAQIELWPYGIYQSGMYYWGQGTQVTVSS”: the “polyreactivity (PSR sort gate)” value is given as “low polyreactivity”.

Take “QVQLEESVGGLVQAGGSLRLSCAASGSIFSPNAMGSYRQAPGKERELVAAISSNGDSTYYADSVKGRFTISRDNAMNTVYLQMNSLKPEDTAVYYCAAVSIGPGEYDYWGQGTQVTVSS”: the “polyreactivity (PSR sort gate)” value is “low polyreactivity”.

Turning to “QVQLEETGGGLVQAGGSLRLSCAASGIILGKNAMGWYRQAPGKERELVASITSGAGITYYADSVKGRFTISRDNAKNTVYLQMNSLKPEDTAVYYCAADWSGDFFTDGYWGQGTQVTVSS”, the “polyreactivity (PSR sort gate)” value is on record as “low polyreactivity”.

As for “QVQLEETVGGLVQAGGSLRLSSAATGLTFYLYVMGWYSQAHGKERELVAAISRRGGTTYYADSVKGRVTISRDKAKNTVYLQLNCLKPDDTAVYDCAADFFARTQRTFDYWGLGTQVTVSS”, the “polyreactivity (PSR sort gate)” value is reported as “high polyreactivity”.

As to “QVQLGESCGGLVQAGGSLRLSCAASGPIFRSYAMGWYRQAPGKERELVARITSGGSTNYADSVKGRFTISRDNAKNTVYLQMNSLKPEDSAVYYCARDWGKSEYDYWGQGTQVTVSS”, the “polyreactivity (PSR sort gate)” value is on record as “high polyreactivity”.

With “QVQLGESGGALVQAGGSLRLSCAASGFTFCPYAMGWYRQAPGKERELDAAISQSGGRTSYADSVKGRFTISRDNAKNTVYLQMNSLKPEDTAVYYCAKRAYGYRSIYRMDYWGQGTLVTVSS”, the “polyreactivity (PSR sort gate)” value is “high polyreactivity”.

“QVQLGESGGGLDQAGGSLRLSCAASGRTFTNNAMGWYRQAPGKERELVAAITSGGRTNYADSVKGRFTISRDNAKNTVYLQMNSLKPEDTAVYYFAARIPSDGYYYWGQGTQVTVSS”: the “polyreactivity (PSR sort gate)” value was “high polyreactivity”.

In the case of “QVQLGESGGGLVQAGCSLRLSCAASGSIFIAYDMGWYRQAPGKERELVAAISIIDGSTYYADSVKRRFTISRDNAKNTVYLQMNSLKPEDTAVYYCSTRVFYLYDYWGQGTQVTVSS”, the “polyreactivity (PSR sort gate)” value is reported as “low polyreactivity”.

Take “QVQLGESGGGLVQAGGSLRLRCAASGYIITYNAMGWYRQAPGKERELVAAISSGGSTNYADSVKGRFTISRDNAKITVYLQMNSLKPEDTAVFYCAAPVWTYDDYWGQGSQVTVSS”: the “polyreactivity (PSR sort gate)” value is reported as “low polyreactivity”.

On to “QVQLGESGGGLVQAGGSLRLSCAASGFIFFYYAMGRYRQAPGKERELVAVNTRGGSTYYADSVKGRFTISRDNAKNTVYLQMNSLKPVDTAVYYCAAGIFYYRYYQVDYWGQGTQVTVSS”, for which the “polyreactivity (PSR sort gate)” value is given as “high polyreactivity”.

Regarding “QVQLGESGGGLVQAGGSLRLSCAASGFIFPIYAMGWYIKSPVTERELVAVISGSGGSTYYADSVKGRFTISRDNAKNTVYLLMNSLKPEDTAVYYCAALGRNVAVYKGGYWGQGNQVTVSS”, the “polyreactivity (PSR sort gate)” value is “low polyreactivity”.

As for “QVQLGESGGGLVQAGGSLRLSCAASGGIFDIYAMGWYRQAPGKERELVAAIRGSGGRTYYADSVKGRFTISRDNAKNSLYLQMNSLKPEDTAVYYCAARPSIVTGLRYGYWGQGTQVTVSS”, the “polyreactivity (PSR sort gate)” value was “high polyreactivity”.

As for “QVQLGESGGGLVQAGGSLRLSCAASGGTFYYYAMGWYRHAPGKERELVATISYSGASTYYADSVKGRFTISRDNAKNTVYLQRNSLKPEDTAVYYCNARPYNHRYRAWMDYWGQGTQVTVSS”, the “polyreactivity (PSR sort gate)” value was “high polyreactivity”.

As to “QVQLGESGGGLVQAGGSLRLSCAASGITFPGYAMGWYRQAPGKERELVARISRSGGSTYYADSVKGRFTISRDNAKNTVYFQMNSLKPEDTAVYYCAAGAYRSGGYSFDDWGQGTQVTVSS”, the “polyreactivity (PSR sort gate)” value is on record as “low polyreactivity”.

Turning to “QVQLGESGGGLVQAGGSLRLSCAASGLILYGYAMGLYRPAPGKERELVATITIGGSTYYADSVKGRFTISRDNAKNTVYLQMNRLNPEDTAVYYCAAEDTLAGSVARFGEYDYWGQGSQVTVSS”, the “polyreactivity (PSR sort gate)” value is reported as “low polyreactivity”.

Take “QVQLGESGGGLVQAGGSLRLSCAASGRIFNVNVMGWYRQAPGKDMELVAAITSGGSTNYADSVKGRFTISRDNAKNTVYLQMNSLKPEDTAVYYCAKDYQYGFGEYPYDYWGQGTQVTVSS”: the “polyreactivity (PSR sort gate)” value was “low polyreactivity”.

Turning to “QVQLGESGGGLVQAGGSLRLSCAASGRIFSTYVMGLYRQAPGKERELVAAITRGGSTNYADSVKGRFTISRDNAKNTVYLQMNSLKPEDTADYYCNAQRRGTYYWGQGTQVTVSS”, the “polyreactivity (PSR sort gate)” value is given as “high polyreactivity”.

Turning to “QVQLGESGGGLVQAGGSLRLSCAASGRIIYTNAMGWYRQAPGKETELVAAINRSGGITYYADSVKGRFTISRDNAKNTVYLQMNSLKPEDTAVYYCAKDYSWASYKHDYWGQGTQVTVSS”, the “polyreactivity (PSR sort gate)” value is recorded as “low polyreactivity”.

Take “QVQLGESGGGLVQAGGSLRLSCAASGRTFGLKAMGWYRQAPGKERELVAAINWRGTSTYYADSVKGRFTISRDNAKNTVYLQMNSLKPEDTAVYYCAARRSVGGYGYWGQGTQVTVSS”: the “polyreactivity (PSR sort gate)” value was “high polyreactivity”.

As for “QVQLGESGGGLVQAGGSLRLSCAASGRTFILNAMGWYRQAPGKERELVAAISWSGGSTYYADSVKGRFTISRDNAKNTVYLQMNSLKPEDTAVYYCAAVTYAYLFHTYDYWGQGTQVTVSS”, the “polyreactivity (PSR sort gate)” value was “low polyreactivity”.

In the case of “QVQLGESGGGLVQAGGSLRLSCAASGRTFYWYDMGWYRQAPGKERELVAAITRSGGSTDYADSVKGRFTISRDNAKNTVYLQMNSLKPEDTAVYYCNADYEVSSQRPAFDYWGQGTQVTVSS”, the “polyreactivity (PSR sort gate)” value is on record as “low polyreactivity”.
